± gives the standard error. For some assays here: Fewer inactive variants are shown than the library holds.
B1: glmS ribozyme (parent)
chain: AUAAAAGCGCCAGAACUACAGAAAUGUAGUUGACGAGGAGGAGGUUUAUCGAAUUUUCGGCGGAUGCCUCCAAA

Tests used:
Details in all cases: with glucosamine-6-phosphate
[1] = variants of: B1; assay: kcat; higher = faster cleavage; RNA array
In short: (§1)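 Using a hybridised Cy3 probe at 37 °C, barcoded ribozyme variants transcribed in situ by E. coli RNA polymerase on sequenced MiSeq chips were monitored across tiles imaged over ~14 h. The flow contained glucosamine-6-phosphate from 40 μM to 10 mM in HEPES/KCl/Mg(OAc)2 buffer. Signals were normalised to baseline and to non-cleaving reference variants before per-tile medians were fit to one- or two-exponential decays to yield kobs. Weighted Michaelis–Menten fits across concentrations gave kcat and KM.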

[2] = variants of: B1; assay: KM; higher = weaker cofactor use; RNA array
In short: as §1

[3] = variants of: B1; assay: self-cleavage kobs at 640 uM GlcN6P; higher = faster cleavage; RNA array
In short: as §1

[4] = variants of: B1; assay: self-cleavage kobs at 2500 uM GlcN6P; higher = faster cleavage; RNA array
In short: as §1

[5] = variants of: B1; assay: self-cleavage kobs at 10000 uM GlcN6P; higher = faster cleavage; RNA array
In short: as §1

[6] = variants of: B1; assay: self-cleavage kobs at 40 uM GlcN6P; higher = faster cleavage; RNA array
In short: as §1

[7] = variants of: B1; assay: self-cleavage kobs at 160 uM GlcN6P; higher = faster cleavage; RNA array
In short: as §1

Variant	kcat [1] [s⁻¹]	KM [2] [µM]	self-cleavage kobs at 640 uM GlcN6P [3] [s⁻¹]	self-cleavage kobs at 2500 uM GlcN6P [4] [s⁻¹]	self-cleavage kobs at 10000 uM GlcN6P [5] [s⁻¹]	self-cleavage kobs at 40 uM GlcN6P [6] [s⁻¹]	self-cleavage kobs at 160 uM GlcN6P [7] [s⁻¹]
AUAAAAGCGCCAAAACUACAGAAAUGUAGUUGACGAGGAGGAGGUUUAUCGAAUUUUCGGCGGAUGCUUCCAAA [G13A C68U]	6.42e-05 ± 2.2e-06	234 ± 85	5.07e-05 ± 1.2e-05	5.81e-05 ± 9e-06	6.26e-05 ± 5.5e-06	–	–
AUAAAAGCGCCUGAACUACAGAAAUGUAGUUGACGAGGAGGAGGUUUAUCGAAUUGUCGGCGGAUGCCUCCAAA [A12U U56G]	0.0516 ± 0.013	1320 ± 390	0.0197 ± 0.0057	–	0.0461 ± 0.011	0.00172 ± 0.0002	0.00468 ± 0.00073
AUAAAAGCGCCUGAACUACAGAAAUGUAGUUGACGAGGAGGAGGUUUAUCGAAUUCUCGGCGGAUGCCUCCAAA [A12U U56C]	0.0355 ± 0.014	2940 ± 1400	0.00808 ± 0.0013	–	0.0251 ± 0.0075	0.000487 ± 0.00011	0.00159 ± 0.00028
AUAAAAGCGCCUGAACUACAGAAAUGUAGUUGACGAGGAGGAGGUUUAUCGAAUUUUCGGCGGAUGCCGGCAAA [A12U U69G C70G]	2.63e-05 ± 1.3e-05	–	–	–	–	–	< 1e-05
AUAAAAGCGCCAAAACUACAGAAAUGUAGUUGACGAGGAGGAGGUUUAUCGAAUUUUCGGCGGAUGAUUGCAAA [G13A C67A C68U C70G]	< 1e-05	–	–	–	–	< 1e-05	–
AUAAAAGCGCCAAAACUACAGAAAUGUAGUUGACGAGGAGGAGGUUUAUCGAAUUUUCGGCGGAUGCCUACAAA [G13A C70A]	2.43e-05 ± 6.3e-06	–	–	–	–	–	–
AUAAAAGCGCCAAAACUACAGAAAUGUAGUUGACGAGGAGGAGGUUUAUCGAAUUUUGGGCGGAUGCCUCCAAA [G13A C58G]	0.000377 ± 8.6e-05	7150 ± 2500	2.8e-05 ± 7.8e-06	0.000101 ± 1.7e-05	0.000217 ± 3.4e-05	–	–
AUAAAAGCGCCAAAACUACAGAAAUGUAGUUGACGAGGAGGAGGUUUAUGGAAUUUUCGGGGGAUUCCUCCAAA [G13A C50G C61G G66U]	0.000136 ± 9.6e-06	17.2 ± 6.7	0.000165 ± 5.4e-05	0.000149 ± 3.8e-05	0.000126 ± 2.6e-05	9.58e-05 ± 1.7e-05	0.000112 ± 3.4e-05
AUAAAAGCGCCUGAACUACAGAAAUGUAGUUGACGAGGAGGAGGUUUAUCGAAUUUUCGGCGGAUGCCACCAAA [A12U U69A]	0.000227 ± 4.2e-05	–	0.000292 ± 4.6e-05	0.000186 ± 2.9e-05	0.000303 ± 4.8e-05	0.000106 ± 1.6e-05	0.000124 ± 2.9e-05
AUAAAAGCGCCAAAACUACAGAAAUGUAGUUGACGAGGCGGAGGUUUAUCGAAUUUUCGGCGGAUGCCUCCAAA [G13A A39C]	0.000118 ± 1.9e-05	3740 ± 1200	–	4.55e-05 ± 7.4e-06	8.77e-05 ± 1.6e-05	–	–
AUAAAAGCGCCAAAACUACAGAAAUGUAGUUGACGAGGUGGAGGUUUAUCGAAUUUUCGGCGGAUGCCUCCAAA [G13A A39U]	0.000349 ± 1.8e-05	2910 ± 270	6.49e-05 ± 8.9e-06	0.000153 ± 2e-05	0.000277 ± 3.4e-05	–	–
AUAAAAGCGCCUGAACUACAGAAAUGUAGUUGACGAGGAGGAGGUUUAUCGAAUUUUCGGCGGACGCCUCCAAA [A12U U65C]	0.0021 ± 0.00079	–	0.000421 ± 9.9e-05	0.00209 ± 0.00035	0.00151 ± 0.00034	4.28e-05 ± 1.2e-05	0.000217 ± 5.2e-05
AUAAAAGCGCCUGAACUACAGAAAUGUAGUUGACGAGGAGGAGGUUUAUCGAAUUUUCGGCGGAAGCCUCCAAA [A12U U65A]	0.0089 ± 0.0024	2460 ± 840	0.00176 ± 0.00027	0.00391 ± 0.00071	0.00799 ± 0.0012	0.000192 ± 2.4e-05	0.000483 ± 5.8e-05
AUAAAAGCGCCAAUACUACAGAAAUGUAGUUGACGAGGAGGAGGUUUAUCGAAUUUUCGGCGGAUGCCUCCAAA [G13A A14U]	0.000964 ± 0.00014	3120 ± 800	0.000184 ± 2.9e-05	0.000365 ± 5e-05	0.000781 ± 8e-05	–	5.13e-05 ± 1.1e-05
AUAAAAGCGCCAACACUACAGAAAUGUAGUUGACGAGGAGGAGGUUUAUCGAAUUUUCGGCGGAUGCCUCCAAA [G13A A14C]	0.000465 ± 2.9e-05	2440 ± 230	9.47e-05 ± 1.2e-05	0.000245 ± 3.2e-05	0.000353 ± 8.7e-05	–	2.93e-05 ± 1e-05
